B1: human Sirt1 (protein)
chain: MADEAALALQPGGSPSAAGADREAASSPAGEPLRKRPRRDGPGLERSPGEPGGAAPEREVPAAARGCPGAAAAALWREAEAEAAAAGGEQEAQATAAAGEGDNGPGLQGPSREPPLADNLYDEDDDDEGEEEEEAAAAAIGYRDNLLFGDEIITNGFHSCESDEEDRASHASSSDWTPRPRIGPYTFVQQHLMIGTDPRTILKDLLPETIPPPELDDMTLWQIVINILSEPPKRKKRKDINTIEDAVKLLQECKKIIVLTGAGVSVSCGIPDFRSRDGIYARLAVDFPDLPDPQAMFDIEYFRKDPRPFFKFAKEIYPGQFQPSLCHKFIALSDKEGKLLRNYTQNIDTLEQVAGIQRIIQCHGSFATASCLICKYKVDCEAVRGDIFNQVVPRCPRCPADEPLAIMKPEIVFFGENLPEQFHRAMKYDKDEVDLLIVIGSSLKVRPVALIPSSIPHEVPQILINREPLPHLHFDVELLGDCDVIINELCHRLGGEYAKLCCNPVKLSEITEKPPRTQKELAYLSELPPTPLHVSEDSSSPERTSPPDSSVIVTLLDQAAKSNDDLDVSESKGCMEEKPQEVQTSRNVESIAEQMENPDLKNVGSSTGEKNERTSVAGTVRKCWPNRVAKEQISRRLDGNQYLFLPPNRYIFHGAEVYSDSEDDVLSSSSCGSNSDSGTCQSPSLEEPMEDESEIEEFYNGLEDEPDVPERAGGAGFGTDGDDQEAINEAISVKQEVTDMNYPSNKS
H3K9 malonyl peptide
  hydrolysis of acyl peptide (LC-MS): but not the malonyl and succinyl peptides
H3K9 acetyl peptide
  Km for acetyl peptide: 38 µM
  hydrolysis of acyl peptide (LC-MS): Sirt1 catalyzed the hydrolysis of the acetyl peptide
  kcat: 0.039 s⁻¹
  kcat/Km (s^-1M^-1): 1000 s^-1M^-1
H3K9 succinyl peptide
  hydrolysis of acyl peptide (LC-MS): but not the malonyl and succinyl peptides

B2: human Sirt7 (protein)
chain: MAAGGLSRSERKAAERVRRLREEQQRERLRQVSRILRKAAAERSAEEGRLLAESADLVTELQGRSRRREGLKRRQEEVCDDPEELRGKVRELASAVRNAKYLVVYTGAGISTAASIPDYRGPNGVWTLLQKGRSVSAADLSEAEPTLTHMSITRLHEQKLVQHVVSQNCDGLHLRSGLPRTAISELHGNMYIEVCTSCVPNREYVRVFDVTERTALHRHQTGRTCHKCGTQLRDTIVHFGERGTLGQPLNWEAATEAASRADTILCLGSSLKVLKKYPRLWCMTKPPSRRPKLYIVNLQWTPKDDWAALKLHGKCDDVMRLLMAELGLEIPAYSRWQDPIFSLATPLRAGEEGSHSRKSLCRSREEAPPGDRGAPLSSAPILGGWFGRGCTKRTKRKKVT
H3K9 malonyl peptide
  hydrolysis of acyl peptide (LC-MS): Sirt6 and Sirt7 have no detectable activity on acetyl, malonyl, or succinyl peptides under the conditions tested
H3K9 acetyl peptide
  hydrolysis of acyl peptide (LC-MS): Sirt6 and Sirt7 have no detectable activity on acetyl, malonyl, or succinyl peptides under the conditions tested
H3K9 succinyl peptide
  hydrolysis of acyl peptide (LC-MS): Sirt6 and Sirt7 have no detectable activity on acetyl, malonyl, or succinyl peptides under the conditions tested

B3: human Sirt2 (protein)
chain: MAEPDPSHPLETQAGKVQEAQDSDSDSEGGAAGGEADMDFLRNLFSQTLSLGSQKERLLDELTLEGVARYMQSERCRRVICLVGAGISTSAGIPDFRSPSTGLYDNLEKYHLPYPEAIFEISYFKKHPEPFFALAKELYPGQFKPTICHYFMRLLKDKGLLLRCYTQNIDTLERIAGLEQEDLVEAHGTFYTSHCVSASCRHEYPLSWMKEKIFSEVTPKCEDCQSLVKPDIVFFGESLPARFFSCMQSDFLKVDLLLVMGTSLQVQPFASLISKAPLSTPRLLINKEKAGQSDPFLGMIMGLGGGMDFDSKKAYRDVAWLGECDQGCLALAELLGWKKELEDLVRREHASIDAQSGAGVPNPSTSASPKKSPPPAKDEARTTEREKPQ
H3K9 acetyl peptide
  Km for acetyl peptide: 190 µM
  kcat: 0.03 s⁻¹
  kcat/Km (s^-1M^-1): 160 s^-1M^-1

B4: human Sirt3 (protein)
chain: ISFSVGASSVVGSGGSSDKGKLSLQDVAELIRARACQRVVVMVGAGISTPSGIPDFRSPGSGLYSNLQQYDLPYPEAIFELPFFFHNPKPFFTLAKELYPGNYKPNVTHYFLRLLHDKGLLLRLYTQNIDGLERVSGIPASKLVEAHGTFASATCTVCQRPFPGEDIRADVMADRVPRCPVCTGVVKPDIVFFGEPLPQRFLLHVVDFPMADLLLILGTSLEVEPFASLTEAVRSSVPRLLINRDLVGPLAWHPRSRDVAQLGDVVHGVESLVELLGWTEEMRDLVQRETGKLDGPDK
H3K9 acetyl peptide
  Km for acetyl peptide: 50 µM
  kcat: 0.012 s⁻¹
  kcat/Km (s^-1M^-1): 240 s^-1M^-1
